Results: patent US20200147235A1 (AbbVie / Abbott, published 2020)

T1: Human CD98 ECD with N-terminal His-tag (human, UniProt P08195 105-529)
T1 construct: The entry includes the linker and the polyhistidine tag; also called huCD98 ECD
T1 sequence: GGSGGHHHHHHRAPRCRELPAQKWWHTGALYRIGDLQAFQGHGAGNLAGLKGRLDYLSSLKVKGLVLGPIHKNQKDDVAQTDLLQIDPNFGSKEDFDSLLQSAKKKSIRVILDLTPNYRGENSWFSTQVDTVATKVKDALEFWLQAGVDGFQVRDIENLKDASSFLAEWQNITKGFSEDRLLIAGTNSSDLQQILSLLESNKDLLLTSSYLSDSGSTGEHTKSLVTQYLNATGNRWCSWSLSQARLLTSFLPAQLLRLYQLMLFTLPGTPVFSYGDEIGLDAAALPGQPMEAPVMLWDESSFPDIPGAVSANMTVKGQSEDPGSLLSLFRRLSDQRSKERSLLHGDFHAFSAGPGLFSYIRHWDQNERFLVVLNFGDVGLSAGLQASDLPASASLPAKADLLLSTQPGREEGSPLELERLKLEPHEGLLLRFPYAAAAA

T2: Cynomolgus monkey CD98 ECD with C-terminal His-tag (SEQ ID NO: 127) (cynomolgus monkey, UniProt P08195 105-529 (human entry))
T2 construct: The entry includes the linker and the polyhistidine tag; also called cyCD98 ECD
T2 chain: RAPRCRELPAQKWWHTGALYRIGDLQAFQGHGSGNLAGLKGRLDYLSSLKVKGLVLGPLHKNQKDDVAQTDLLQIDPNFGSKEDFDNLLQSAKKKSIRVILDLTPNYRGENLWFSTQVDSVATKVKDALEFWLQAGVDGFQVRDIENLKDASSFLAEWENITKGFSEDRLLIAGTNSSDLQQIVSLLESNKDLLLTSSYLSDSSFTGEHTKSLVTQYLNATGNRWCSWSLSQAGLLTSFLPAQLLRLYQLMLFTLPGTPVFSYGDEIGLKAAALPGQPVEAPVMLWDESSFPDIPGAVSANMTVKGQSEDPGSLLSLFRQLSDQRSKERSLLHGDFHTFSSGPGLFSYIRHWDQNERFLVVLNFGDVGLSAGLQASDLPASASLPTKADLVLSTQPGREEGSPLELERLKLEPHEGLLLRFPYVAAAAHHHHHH


Assays:
[1] = target: T1, Human CD98 ECD with N-terminal His-tag; assay: SPR (Biacore), recombinant CD98 ECD
[2] = target: T2, Cynomolgus monkey CD98 ECD with …; assay: SPR (Biacore), recombinant CD98 ECD

Binder | Kd [1] | koff [1] | kon [1] | Kd [2] | koff [2] | kon [2]
huAb103 (antibody, V domains shown, Framework re-engineered humanized clone (parent huAb3v2), expressed as full-length IgG; also called haAb103) VH: EVQLVESGGGLVKPGGSLRLSCATSGFTFIDYYMSWVRQAPGKGLEWLGFIRNKAYGYTTEYSASVKGRFTISRDNSKSILYLQMNSLKTEDTAVYYCTRDRPAWFVYWGQGTLVTVSS VL: DIVMTQTPLSLPVTPGEPASISCKSSQSLLYSSNQKNYLAWYLQKPGQSPQLLIYWASTRESGVPDRFSGSGSGTDFTLKISRVEAEDVGVYYCQQYYSYPYTFGGGTKVEIK | 3.4 nM | 0.00059 s⁻¹ | 180000 M⁻¹ s⁻¹ | 14 nM | 0.00044 s⁻¹ | 31000 M⁻¹ s⁻¹
huAb106 (antibody, V domains shown, Framework re-engineered humanized clone (parent huAb15v1), expressed as full-length IgG) VH: EVQLVQSGAEVKKPGASVKVSCKASGFTFSDYTMAWVRQAPGQGLEWVATIIYSGRGTYYRDAVKGRFTITRDNSTSTLYLELSSLRSEDTAVYYCARQSDHTYYYWGYFDYWGQGTMVTVSS VL: DIVMTQTPLSLPVTPGEPASINCKSSQSLLFSGNQKNYLAWYLQKPGQSPQLLIYWASTRQSGVPDRFSGSGSGTDFTLKISRVEAEDVGIYYCQQYYDVPYTFGQGTKLEIK | 0.16 nM | 2.2e-05 s⁻¹ | 140000 M⁻¹ s⁻¹ | 2.2 nM | 9.5e-05 s⁻¹ | 43000 M⁻¹ s⁻¹
huAb107 (antibody, V domains shown, Framework re-engineered humanized clone (parent huAb15v2), expressed as full-length IgG) VH: EVQLVESGGGLVQPGGSLRLSCAASGFTFSDYTMAWVRQAPGKGLEWVATIIYSGRGTYYRDAVKGRFTISRDNAKNTLYLQMNSLRAEDTAVYYCARQSDDTYYYWGYFDYWGQGTMVTVSS VL: DIVMTQTPLSLPVTPGEPASINCKSSQSLLFSGNQKNYLAWYLQKPGQSPQLLIYWASTRQSGVPDRFSGSGSGTDFTLKISRVEAEDVGIYYCQQYYDVPYTFGQGTKLEIK | 0.33 nM | 3.8e-05 s⁻¹ | 110000 M⁻¹ s⁻¹ | 2.7 nM | 8.7e-05 s⁻¹ | 33000 M⁻¹ s⁻¹
huAb102 (antibody, human IgG1, kappa, L234A L235A, V domains shown, Framework re-engineered humanized clone (parent huAb3v1); also called CL-huAb102) VH: EVQLVESGGGLVQPGGSLRLSCATSGFTFIDYYMSWVRQAPGKGLEWLGFIRNKANRYTTEYSASVKGRFTISRDNSKSILYLQMNSLKTEDTAVYYCTRDRPAWFVYWGQGTLVTVSS VL: DIVMTQTPLSLPVTPGEPASISCKSSQSLLYSSNQKNYLAWYLQKPGQSPQLLIYWASTRESGVPDRFSGSGSGTDFTLKISRVEAEDVGVYYCQQYYSYPYTFGGGTKVEIKR | 5.5 nM | 0.0018 s⁻¹ | 330000 M⁻¹ s⁻¹ | 21 nM | 0.00068 s⁻¹ | 32000 M⁻¹ s⁻¹
huAb105 (antibody, V domains shown, Framework re-engineered humanized clone (parent huAb15v1), expressed as full-length IgG) VH: EVQLVESGGGLVQPGGSLRLSCAASGFTFSDYTMAWVRQAPGKGLEWVATIIYSGRGTYYRDAVKGRFTISRDNAKNTLYLQMNSLRAEDTAVYYCARQSDHTYYYWGYFDYWGQGTMVTVSS VL: DIVMTQTPLSLPVTPGEPASINCKSSQSLLFSGNQKNYLAWYLQKPGQSPQLLIYWASTRQSGVPDRFSGSGSGTDFTLKISRVEAEDVGIYYCQQYYDVPYTFGQGTKLEIK | 0.17 nM | 2.4e-05 s⁻¹ | 140000 M⁻¹ s⁻¹ | 1.4 nM | 5.3e-05 s⁻¹ | 38000 M⁻¹ s⁻¹
huAb109 (antibody, V domains shown, Framework re-engineered humanized clone (parent huAb15v6), expressed as full-length IgG) VH: EVQLVESGGGLVQPGGSLRLSCAASGFTFSDYTMAWVRQAPGKGLEWVATIIYDARGTYYRDAVKGRFTISRDNAKNTLYLQMNSLRAEDTAVYYCARQSDDTYYYWGYFDYWGQGTMVTVSS VL: DIVMTQTPLSLPVTPGEPASINCKSSQSLLFSGNQKNYLAWYLQKPGQSPQLLIYWASTRQSGVPDRFSGSGSGTDFTLKISRVEAEDVGIYYCQQYYSSPYTFGQGTKLEIK | 1.1 nM | 0.00017 s⁻¹ | 160000 M⁻¹ s⁻¹ | 12 nM | 0.00031 s⁻¹ | 26000 M⁻¹ s⁻¹
huAb104 (antibody, human IgG1, kappa, L234A L235A, V domains shown, Framework re-engineered humanized clone (parent huAb3v2); also called CL-huAb104) VH: EVQLVESGGGLVQPGGSLRLSCATSGFTFIDYYMSWVRQAPGKGLEWLGFIRNKAYGYTTEYSASVKGRFTISRDNSKSILYLQMNSLKTEDTAVYYCTRDRPAWFVYWGQGTLVTVSS VL: DIVMTQTPLSLPVTPGEPASISCKSSQSLLYSSNQKNYLAWYLQKPGQSPQLLIYWASTRESGVPDRFSGSGSGTDFTLKISRVEAEDVGVYYCQQYYSYPYTFGGGTKVEIKR | 2 nM | 0.00091 s⁻¹ | 450000 M⁻¹ s⁻¹ | 14 nM | 0.00048 s⁻¹ | 34000 M⁻¹ s⁻¹
huAb108 (antibody, human IgG1, kappa, L234A L235A, V domains shown, Framework re-engineered humanized clone (parent huAb15v2); also called CL-huAb108) VH: EVQLVQSGAEVKKPGASVKVSCKASGFTFSDYTMAWVRQAPGQGLEWVATIIYSGRGTYYRDAVKGRFTITRDNSTSTLYLELSSLRSEDTAVYYCARQSDDTYYYWGYFDYWGQGTMVTVSS VL: DIVMTQTPLSLPVTPGEPASINCKSSQSLLFSGNQKNYLAWYLQKPGQSPQLLIYWASTRQSGVPDRFSGSGSGTDFTLKISRVEAEDVGIYYCQQYYDVPYTFGQGTKLEIKR | 0.55 nM | 4.1e-05 s⁻¹ | 75000 M⁻¹ s⁻¹ | 4.6 nM | 0.00014 s⁻¹ | 29000 M⁻¹ s⁻¹
huAb110 (antibody, human IgG1, kappa, L234A L235A, V domains shown, Framework re-engineered humanized clone (parent huAb15v6); also called CL-huAb110) VH: EVQLVQSGAEVKKPGASVKVSCKASGFTFSDYTMAWVRQAPGQGLEWVATIIYDARGTYYRDAVKGRFTITRDNSTSTLYLELSSLRSEDTAVYYCARQSDDTYYYWGYFDYWGQGTMVTVSS VL: DIVMTQTPLSLPVTPGEPASINCKSSQSLLFSGNQKNYLAWYLQKPGQSPQLLIYWASTRQSGVPDRFSGSGSGTDFTLKISRVEAEDVGIYYCQQYYSSPYTFGQGTKLEIKR | 2.3 nM | 0.0003 s⁻¹ | 130000 M⁻¹ s⁻¹ | 23 nM | 0.00051 s⁻¹ | 23000 M⁻¹ s⁻¹
